{
  "source": "patent US20020077289A1",
  "about": "“Angiostatin and endostatin binding proteins and methods of use” (priority 2000, published 2002)",
  "key": {"[1]": {"test": "Pharmacokinetics: serum rhEndostatin levels after s.c. administration", "assay_type": "in vivo, C57BL/6J mice", "conditions": "for AUClast: sera 0.17-2 hours", "experimental": "To determine the pharmacokinetics, C57BL/6J mice (3 per time point) were dosed s.c. with 1.5 nmol of rhEndostatin alone or in combination with 375 nmol of either E37 or control peptide. Sera was collected 0.17, 0.5, 1 and 2 hours following s.c. administration. Serum drug levels were determined using an Endostatin EIA kit (Cytlmmune Sciences, College Park, Md.) according to the manufacture's instructions. Pharmacokinetic analyses of the serum concentration versus time data were performed by nonlinear least square minimization using RSTRIP (Version 4.03, MicroMath Scientific Software, Salt Lake City, Ut.).\nGroups of mice (3 mice/time point) were injected s.c. with 1.5 nmol of rhEndostatin alone or in combination with a 250-fold molar excess of either E37 or control peptide. Sera were collected at 0.17, 0.5, 1 and 2 hours following s.c. administration, and assessed for serum rhEndostatin levels as previously described (Sim et al.)"}, "HUVEC microfilaments": {"tested_on": "HUVEC microfilaments", "test": "Fluorescent staining of formalin fixed endothelial cells with Alexa 488-labeled rhEndostatin", "assay_type": "cell-based, human", "conditions": "40 μg/ml Alexa 488-labeled rhEndostatin with anti-tropomyosin TM311; HUVECs", "experimental": "(A), HUVECs, (B), HAECs and (C), HMVECs were incubated in the presence of 40 micrograms per milliliter (μg/ml) Alexa 488-labeled rhEndostatin and photographed at 100× magnification under Alexa 488 (green) excitation wavelength. (D) and (E), HUVECs were incubated simultaneously in anti-tropomyosin TM311 ascites fluid and 40 micrograms per milliliter (μg/ml) Alexa 488-labeled rhEndostatin followed by incubation in Alexa 594 conjugated goat anti-mouse IgG (H+L). The same field was photographed under Alexa 488 (green) and Alexa 594 (red) excitation wavelengths at 100× magnification.\nHUVECs were incubated in the presence of 40 micrograms per milliliter (μg/ml) Alexa 488-labeled rhEndostatin alone (A), or in the presence of a 50-fold molar excess of control peptide (B), or E37 peptide (C). Cells were photographed using the same exposure times at 100x magnification under Alexa 488 (green) excitation wavelength.\nTo detect the binding of Alexa-labeled rhEndostatin 1×10^4 HUVEC, HMVEC and HAECs were plated on 1.5% gelatin coated Nalge Nunc Lab Tek II chamber slides (Naperville, Ill.) and fixed in 10% neutral buffered formalin followed by a methanol wash. The chamber slides were incubated in PBS/1% calf serum containing 40 μg/ml (2 μM) of Alexa 488-labeled rhEndostatin (Narum et al., manuscript in preparation) for 1 hr at room temperature. The slides were washed in PBS, coverslips mounted using fluorescent mounting media (Kirkegaard and Perry Laboratories, Gaithersburg, Md.) and cells photographed under Alexa 488 excitation wavelength. Co-localization studies were performed as above except cells were incubated in PBS/1% calf serum containing 1:200 mouse anti-tropomyosin TM311 (Sigma, St. Louis, Miss.) and 40 μg/ml of Alexa 488-labeled rhEndostatin followed by incubation with goat anti-mouse IgG (H+L) conjugated to Alexa 594 (Molecular Probes, Eugene, Oregon). The same fields were photographed under Alexa 488 and Alexa 594 wavelengths. […]"}, "viable HUVECs": {"tested_on": "viable HUVECs", "test": "Internalization of Alexa Fluor 488 labeled rhEndostatin by viable HUVECs", "assay_type": "cell-based, human", "experimental": "To determine whether live endothelial cells actively internalize Endostatin protein, viable HUVECs were incubated with Alexa Fluor™ 488 labeled rhEndostatin protein. […] Internalized rhEndostatin was rapidly processed such that by 60 minutes, little if any intercellular fluorescence was detected (data not shown)."}, "[2]": {"tested_on": "primary cultures of pericytes", "test": "Proliferation of PDGF-BB or 20% fetal calf serum stimulated pericytes (thymidine incorporation, MTT)", "assay_type": "cell-based", "text": "(§1) Endostatin protein results in an inhibition of proliferation of PDGF-BB or 20% fetal calf serum stimulated primary cultures of pericytes and to a lesser extent fibroblasts. […] The results have been confirmed using a MTT proliferation kit.\nEndostatin protein tends to have a greater effect on cells in the earlier stages of differentiation. While such cells constitute a small fraction of the total number, inhibiting their proliferation may have significant effects on the final total cell number. Endostatin protein's effect on cells early in the differentiation pathway results in a reduction of 70-80% of the final cell number. Endostatin protein also changes the morphology of these cells (data not shown)."}, "fibroblasts": {"tested_on": "fibroblasts", "test": "Proliferation of PDGF-BB or 20% fetal calf serum stimulated fibroblasts (thymidine incorporation, MTT)", "assay_type": "cell-based", "conditions": "stimulated with PDGF-BB or 20% fetal calf serum; compared with pericytes", "text": "as §1"}, "wound healing": {"tested_on": "wound healing", "conditions": "in vivo; cited from earlier work"}, "[3]": {"conditions": "parenteral administration; cited from earlier work"}},
  "data": [
    {"molecule": "rhEndostatin: recombinant human Endostatin, antiangiogenic fragment of a C-terminal non-collagenous region of a collagen protein, produced in P. pastoris (protein) HSHRDFQPVLHLVALNSPLSGGMRGIRGADFQCFQQARAVGLAGTFRAFLSSRLQDLYSIVRRADRAAVPIVNLKDELLFPSWEALFSGSEGPLKPGARIFSFDGKDVLRHPTWPQKSVWHGSDPNGRRLTESYCETWRTEAPSATGQASSLLGGRLLGQSAASCHHAYIVLCIENSFMTASK", "values": [
      {"measurement": "AUClast", "setting": "[1]; 1.5 nmol rhEndostatin s.c. + 250x E37 peptide", "value": 4544, "unit": "ng·min/mL"},
      {"measurement": "AUClast", "setting": "[1]; 1.5 nmol rhEndostatin s.c. + 250x control peptide", "value": 5552, "unit": "ng·min/mL"},
      {"measurement": "AUClast", "setting": "[1]; 1.5 nmol rhEndostatin s.c. alone", "value": 5370, "unit": "ng·min/mL"},
      {"measurement": "AUClast relative to rhEndostatin alone or with 375 nmol control peptide", "setting": "[1]; 1.5 nmol rhEndostatin s.c. co-administered with 250-fold molar excess of E37 peptide", "value": 85, "unit": "%"},
      {"measurement": "localization of fluorescently labeled rhEndostatin in fixed cells", "setting": "HUVEC microfilaments", "value": "co-localized to HUVEC microfilaments"},
      {"measurement": "internalization by live endothelial cells", "setting": "viable HUVECs", "value": "rapidly internalized and translocated predominantly to the nucleus"},
      {"measurement": "differentiation of pericytes to fibroblasts", "setting": "[2]", "value": "does not appear to affect"},
      {"measurement": "reduction of the final cell number", "setting": "[2]; effect on cells early in the pericyte/fibroblast differentiation pathway", "value": "70-80%"},
      {"measurement": "thymidine incorporation into primary cultures of pericytes", "setting": "[2]; stimulated with PDGF-BB or 20% fetal calf serum", "value": "consistent reduction in thymidine incorporation"},
      {"measurement": "thymidine incorporation into fibroblasts", "setting": "fibroblasts", "value": "to a lesser degree"},
      {"measurement": "effect on wound healing", "setting": "wound healing", "value": "remained unaffected"},
      {"measurement": "circulating levels", "setting": "[3]", "value": "nM range"}
    ]}
  ]
}
